Results from PMC10967027.
“And” between values parts separate entries of the source, which are not always exact repeats. Equal values may be shown once.

Key:
[1] = target: 868-Z11 single chain TCR (WT), displayed on yeast; experiment: flow cytometry on cells; yeast displaying the 868-Z11 scTCR stained with PE-conjugated SL9/HLA-A2 tetramer, 256 pM to 32.8 nM, 30 min at 4°C, PBS-BSA; MFI fit to a 1:1 binding isotherm; apparent KD; in duplicate
[2] = target: 868-Z11 A94αH/T96βK single chain TCR; experiment: SPR; steady state; scTCR immobilised on a CM5 Series S chip by amine coupling (about 2000 RU); peptide/MHC injected at 5 μL/min at concentrations between 50 µM and 2 nM; 25 °C; HBS-EP (10 mM HEPES, 150 mM NaCl, 3 mM EDTA, 0.005% surfactant P-20, pH 7.4); 1:1 binding model; each cell one of three titrations of its group
[3] = target: 868-Z11 T96βK single chain TCR; experiment: as above
[4] = target: 868-Z11 G104βP/T96βK single chain TCR; experiment: as above
[5] = target: 868-Z11 G104βP/T96βK single chain TCR, soluble recombinant
[6] = target: 868-Z11 T96βK single chain TCR, soluble recombinant; experiment: SPR; steady state; scTCR immobilised on CM5 chip by amine coupling (about 2000 RU); peptide/MHC injected at 50 µM to 2 nM, 5 μL/min; 25°C; HBS-EP pH 7.4; 1:1 model
[7] = target: 868-Z11 A94αH/T96βK single chain TCR, soluble recombinant; experiment: as above
[8] = target: 868-Z11 G104βP/T96βK single chain TCR, soluble recombinant; experiment: as above
[9] = target: 868-Z11 A94αH single chain TCR, soluble recombinant; experiment: SPR; single cycle kinetics; scTCR immobilised on CM5 chip by amine coupling (100-300 RU); peptide/MHC injected at 0.6-48 nM, 100 μL/min; 25°C; HBS-EP pH 7.4; 1:1 model
[10] = target: 868-Z11 G104βP single chain TCR, soluble recombinant; experiment: as above

PE-conjugated SL9/HLA-A2 tetramer (from UniProt P61769 21-119) (peptide-MHC)
Kd [1]: 0.0017 µM

SL9 T8V escape variant presented by HLA-A*02:01 (from UniProt P61769 21-119) (peptide-MHC)
Kd [2]: 22.2 µM and 24.3 µM and 40.7 µM | Kd [3]: 1.6 µM and 1.9 µM and 2.7 µM | Kd [4]: 1.4 µM and 3.5 µM and 3.2 µM

SL9 V6I escape variant presented by HLA-A*02:01 (from UniProt P61769 21-119) (peptide-MHC)
Kd [2]: 9.5 µM and 12.4 µM and 17.9 µM | Kd [3]: 0.8 µM and 1.1 µM and 1.2 µM | Kd [4]: 0.7 µM and 1.5 µM and 1.6 µM

SL9 V6I/T8V escape variant presented by HLA-A*02:01 (from UniProt P61769 21-119) (peptide-MHC)
Kd [2]: 9.9 µM and 13.7 µM and 17.9 µM | Kd [3]: 0.8 µM and 1.1 µM and 1 µM | Kd [4]: 0.8 µM and 1.8 µM and 1.5 µM

SL9 Y3F escape variant presented by HLA-A*02:01 (from UniProt P61769 21-119) (peptide-MHC)
Kd [2]: 264 µM and 274 µM and 403 µM | Kd [3]: 38.6 µM and 39.3 µM and 58.2 µM | Kd [4]: 34 µM and 39.8 µM and 52.3 µM

SL9 Y3F/T8V escape variant presented by HLA-A*02:01 (from UniProt P61769 21-119) (peptide-MHC)
Kd [2]: 324 µM and 314 µM and 475 µM | Kd [3]: 46 µM and 44.6 µM and 59 µM | Kd [4]: 49.1 µM and 62.5 µM

SL9 Y3F/V6I escape variant presented by HLA-A*02:01 (from UniProt P61769 21-119) (peptide-MHC)
Kd [2]: 102 µM and 105 µM and 167 µM | Kd [3]: 9.6 µM and 10.2 µM and 15.7 µM | Kd [4]: 12.5 µM and 18.5 µM and 22.5 µM

SL9 Y3F/V6I/T8V escape variant presented by HLA-A*02:01 (from UniProt P61769 21-119) (peptide-MHC)
Kd [2]: 154 µM and 177 µM and 203 µM | Kd [3]: 17.3 µM and 23.8 µM and 20.2 µM | Kd [4]: 20.4 µM and 28.1 µM and 26.3 µM

SL9/HLA-A2 (HIV SL9 epitope presented by HLA-A*02:01), soluble (from UniProt P61769 21-119) (peptide-MHC)
peptide EC50 of IL-2 release (ELISA): CD8+ Jurkat 76 cells with the full length 868-Z11 G104βP/T96βK TCR co-cultured with T2 cells pulsed with WT SL9 peptide, 0.1 nM-100 µM [5]: 0.01 µM | Kd [6]: 2.5 µM | Kd [7]: 33 µM | Kd [8]: 2.2 µM | Kd [9]: 0.0052 µM | Kd [10]: 0.0003 µM
